# Test results from patent US20260022171A1 (23ANDME, published 2026).
# Substitutions are numbered along the chain they refer to.
# B1: cyno-CD200R1 ECD (receptor)
# chain: AAQSNNSLMLQTSKENHTLASNSLCMDEKQITQNHSKVLAEVNISWPVQMARNAVLCCPPIEFRNLIVITWEIILRGQPSCTKTYRKDTNETKETNCTDERITWVSTPDQNSDLQIHPVAITHDGYYRCIMATPDGNFHRGYHLQVLVTPEVTLFESRNRTAVCKAVAGKPAAQISWIPAGDCAPTEQEYWGNGTVTVKSTCHWEGHNVSTVTCHVSHLTGNKSLYIELLPVPGAKKSAKLGGGSGLNDIFEAQKIEWHEGSGGHHHHHHHH
# notes: also called cynomolgus monkey CD200R1; MfCD200R1 (recombinant)
# B2: h10F6.V1 (antibody, IgG1, V domains shown)
# VH: EVQLQESGPGLVKPSETLSLTCTVSGFSLTNYRVSWVRQPPGKGLEWLGVMYAGGGTNYNSVFKSRLTISKDNSKNQVSLKLSSVTAADTAVYYCARERPLTGVMDNWGQGTLVTVSS
# VL: DIVLTQSPDSLAVSLGERATINCRASESVDYSGNSFMHWFQQKPGQPPKLLIYRASNLESGIPDRFSGSGSRTDFTLTISSLQAEDVAVYYCHQSNWDPPTFGGGTKVEIKR
# notes: differs by 3 residues in the heavy chain CDRs and 1 in the light chain CDRs; also called surrogate antibody
# B3: h10F6.V2 (antibody, IgG1, V domains shown)
# VH: B2 VH with R33W, V50T, Y52W, V104P, N107Y
# VL: B2 VL with W97E
# notes: IgG1 variant of h10F6
# B4: h10F6.V4 (antibody, IgG1, V domains shown)
# VH: B2 VH with R33W, V50T, Y52W, V104P, N107Y
# VL: B2 VL
# notes: IgG1 variant of h10F6
# B5: h10F6.V3 (antibody, IgG1, V domains shown)
# VH: B2 VH
# VL: B2 VL with W97E
# notes: IgG1 variant of h10F6
# B6: h22.1 (humanized 22.1 IgG) (antibody, V domains shown)
# VH: EVQLVQSGAEVKKPGASVKVSCKASGYTFTSYVMFWVRQAPGQRLEWIGYINPYNDDTKYNEKFKGRATLTSDKSASTAYMELSSLRSEDTAVYYCAREDYYGSRFVYWGQGTLVTVSS
# VL: DIQLTQSPSSLSASVGDRVTITCRASKSVSTSGYSYMHWYQQKPGKPPKLLIYLASNLESGVPSRFSGSGSGTDFTLTISSLQPEDFATYYCQHNRELLTFGGGTKVEIKR
# Experiments:
# cyno-CD200-Fc = biological target: T1, cyno-CD200-Fc (cynomolgus monkey); test: ELISA: biotinylated MfCD200R1 (0.12 ug/ml) on plate-immobilised Fc-tagged MfCD200, HRP-streptavidin, OD450
# T1 construct: also called MfCD200-Fc; Fc-tagged MfCD200
# T1 sequence (chain, as listed by the source limits assumed): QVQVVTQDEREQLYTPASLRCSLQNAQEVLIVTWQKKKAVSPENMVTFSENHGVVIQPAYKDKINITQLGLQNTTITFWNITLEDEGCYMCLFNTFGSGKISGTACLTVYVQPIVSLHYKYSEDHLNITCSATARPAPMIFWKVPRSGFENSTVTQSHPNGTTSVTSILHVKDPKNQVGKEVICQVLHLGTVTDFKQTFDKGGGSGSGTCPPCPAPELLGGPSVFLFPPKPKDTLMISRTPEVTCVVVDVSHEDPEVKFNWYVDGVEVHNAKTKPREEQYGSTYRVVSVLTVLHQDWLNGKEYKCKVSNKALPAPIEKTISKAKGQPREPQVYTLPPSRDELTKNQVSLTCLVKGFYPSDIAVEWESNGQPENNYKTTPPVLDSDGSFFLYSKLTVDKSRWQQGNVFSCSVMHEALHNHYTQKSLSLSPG
# Description: (§1) Binding was evaluated by incubating with HRP-streptavidin and colorimetric substrate, followed by monitoring the OD450 in each well.
# cyno-CD200R1 ECD [1] = biological target: B1; test: Biacore, binding to MfCD200R1
# cyno-CD200R1 ECD [2] = biological target: B1; test: SPR binding affinity to recombinant MfCD200R1
# cyno-CD200R1 ECD [3] = biological target: B1; test: blocking ELISA, MfCD200R1 to immobilized MfCD200
# Description: as §1
# hu-CD200R1-iso4-Ref ECD [4] = biological target: T2, hu-CD200R1-iso4-Ref ECD (human); test: SPR Biacore 8K 37C; antibody on Protein A chip, CD200R1 analyte;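 also: sensorgrams corrected by subtracting reference and buffer signals, then analysed with Biacore 8K Evaluation Software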
# T2 chain: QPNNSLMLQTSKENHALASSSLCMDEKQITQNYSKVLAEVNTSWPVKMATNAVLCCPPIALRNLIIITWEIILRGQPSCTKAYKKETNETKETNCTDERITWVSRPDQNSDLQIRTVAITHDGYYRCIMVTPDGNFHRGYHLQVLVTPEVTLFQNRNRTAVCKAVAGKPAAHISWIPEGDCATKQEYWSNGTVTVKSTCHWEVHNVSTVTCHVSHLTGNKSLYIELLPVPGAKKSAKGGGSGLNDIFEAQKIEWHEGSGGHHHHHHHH
# Description: (§2) The sensorgram was recorded and subject to reference and buffer subtraction before evaluation by BIACORE®8K Evaluation Software (version 1.1.1.7442). Association rates (kₒ₀) and dissociation rates (koff) were calculated using a simple one-to-one Langmuir binding model.
# hu-CD200R1-iso4-Alt ECD [5] = biological target: T3, hu-CD200R1-iso4-Alt ECD (human); test: as above
# T3 construct: also called isoform 4 alt
# T3 chain: T2 chain with K84R, T116P, H172Q
# Description: as §2
# cyno-CD200R1 ECD [6] = biological target: B1; test: as above
# Description: as §2
# hu-CD200R1-iso4-Ref ECD [7] = biological target: T2, hu-CD200R1-iso4-Ref ECD; test: blocking ELISA; biotin-hu-CD200R1 + antibody dilutions on coated hu-CD200-Fc
# Description: (§3) After removing the coating solution, unspecific binding was blocked with PBS containing 1% bovine serum albumin (BSA) and incubation at room temperature for one hour. Plates were then washed five times in PBS with 0.05% TWEEN®-20 (wash buffer).
# cyno-CD200R1 ECD [8] = biological target: B1; test: blocking ELISA; biotin-cyno-CD200R1 + antibody dilutions on coated cyno-CD200-Fc
# hu-CD200R1-iso4-Ref ECD [9] = biological target: T2, hu-CD200R1-iso4-Ref ECD; test: SPR Biacore 8K 37C; biotin-CD200R1 captured, antibody analyte
# Description: (§4) For kinetics measurements, 3 nM biotinylated human CD200R1. […] The sensorgram was recorded and subject to reference and buffer subtraction before evaluating by BIACORE® 8K Evaluation Software (version 1.1.1.7442).
# (§5) Association rates (kₒₙ) and dissociation rates (koff) were calculated using a simple one-to-one Langmuir binding model. The equilibrium dissociation constant (KD) was calculated as the ratio of koff/kₒₙ.
# hu-CD200R1-iso1-Ref ECD [10] = biological target: T4, hu-CD200R1-iso1-Ref ECD (human); test: as above
# T4 chain: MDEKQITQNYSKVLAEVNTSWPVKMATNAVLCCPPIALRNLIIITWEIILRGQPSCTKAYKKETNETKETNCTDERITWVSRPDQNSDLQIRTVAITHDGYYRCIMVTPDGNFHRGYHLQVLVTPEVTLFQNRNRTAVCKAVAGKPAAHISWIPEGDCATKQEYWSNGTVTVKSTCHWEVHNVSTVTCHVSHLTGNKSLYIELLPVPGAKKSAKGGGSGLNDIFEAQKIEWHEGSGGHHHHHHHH
# Description: as §4, §5
# hu-CD200R1-iso4-Alt ECD [11] = biological target: T3, hu-CD200R1-iso4-Alt ECD; test: as above
# Description: as §4, §5
# hu-CD200R1-iso1-Alt ECD [12] = biological target: T5, hu-CD200R1-iso1-Alt ECD (human); test: as above
# T5 chain: T4 chain with K61R, T93P, H149Q
# Description: as §4, §5
# hu-CD200R1-iso4-Ref ECD [13] = biological target: T2, hu-CD200R1-iso4-Ref ECD; test: blocking ELISA; biotin-CD200R1 + antibody dilutions on coated hu-CD200-Fc
# Description: as §3
# hu-CD200R1-iso1-Ref ECD [14] = biological target: T4, hu-CD200R1-iso1-Ref ECD; test: as above
# Description: as §3
# hu-CD200R1-iso4-Alt ECD [15] = biological target: T3, hu-CD200R1-iso4-Alt ECD; test: as above
# Description: as §3
# hu-CD200R1-iso1-Alt ECD [16] = biological target: T5, hu-CD200R1-iso1-Alt ECD; test: as above
# Description: as §3
Binder,Kd (hu-CD200R1-iso4-Ref ECD [4]),koff (hu-CD200R1-iso4-Ref ECD [4]),kon (hu-CD200R1-iso4-Ref ECD [4]),Kd (hu-CD200R1-iso4-Alt ECD [5]),koff (hu-CD200R1-iso4-Alt ECD [5]),kon (hu-CD200R1-iso4-Alt ECD [5]),Kd (cyno-CD200R1 ECD [6]),koff (cyno-CD200R1 ECD [6]),kon (cyno-CD200R1 ECD [6]),IC50 (hu-CD200R1-iso4-Ref ECD [7]),IC50 (cyno-CD200R1 ECD [8]),also measured
B1,,,,,,,,,,,,binding result (cyno-CD200-Fc): binds
B2,0.716 nM,0.000964 s⁻¹,1.35e+06 M⁻¹ s⁻¹,0.814 nM,0.00117 s⁻¹,1.44e+06 M⁻¹ s⁻¹,10.5 nM,0.00457 s⁻¹,436000 M⁻¹ s⁻¹,0.58 nM,2.44 nM,Kd (cyno-CD200R1 ECD [1]): 2.63 nM; Kd (cyno-CD200R1 ECD [2]): 2.63 nM; IC50 (cyno-CD200R1 ECD [3]): 2.45 nM
B3,6.04 nM,0.00367 s⁻¹,607000 M⁻¹ s⁻¹,6.68 nM,0.00425 s⁻¹,635000 M⁻¹ s⁻¹,16.3 nM,0.00351 s⁻¹,216000 M⁻¹ s⁻¹,4.79 nM,4.25 nM,
B4,8.93 nM,0.00336 s⁻¹,377000 M⁻¹ s⁻¹,9.99 nM,0.00387 s⁻¹,388000 M⁻¹ s⁻¹,5.87 nM,0.00113 s⁻¹,193000 M⁻¹ s⁻¹,10.9 nM,2.15 nM,
B5,0.817 nM,0.00153 s⁻¹,1.88e+06 M⁻¹ s⁻¹,0.935 nM,0.00191 s⁻¹,2.04e+06 M⁻¹ s⁻¹,60.7 nM,0.0195 s⁻¹,322000 M⁻¹ s⁻¹,0.56 nM,11.4 nM,
B6,,,,,,,,,,,,Kd (hu-CD200R1-iso4-Ref ECD [9]): 1.92 nM; koff (hu-CD200R1-iso4-Ref ECD [9]): 0.00115 s⁻¹; kon (hu-CD200R1-iso4-Ref ECD [9]): 598000 M⁻¹ s⁻¹; Kd (hu-CD200R1-iso1-Ref ECD [10]): 0.501 nM; koff (hu-CD200R1-iso1-Ref ECD [10]): 0.00151 s⁻¹; kon (hu-CD200R1-iso1-Ref ECD [10]): 3.02e+06 M⁻¹ s⁻¹; Kd (hu-CD200R1-iso4-Alt ECD [11]): 1.92 nM; koff (hu-CD200R1-iso4-Alt ECD [11]): 0.00116 s⁻¹; kon (hu-CD200R1-iso4-Alt ECD [11]): 604000 M⁻¹ s⁻¹; Kd (hu-CD200R1-iso1-Alt ECD [12]): 0.535 nM; koff (hu-CD200R1-iso1-Alt ECD [12]): 0.00166 s⁻¹; kon (hu-CD200R1-iso1-Alt ECD [12]): 3.11e+06 M⁻¹ s⁻¹; IC50 (hu-CD200R1-iso4-Ref ECD [13]): 5.32 nM; IC50 (hu-CD200R1-iso1-Ref ECD [14]): 5.86 nM; IC50 (hu-CD200R1-iso4-Alt ECD [15]): 4.59 nM; IC50 (hu-CD200R1-iso1-Alt ECD [16]): 7.45 nM
